What was measured:
[1] = target: T1, human CD3 epsilon subunit (CD3e), as cell surface CD3 on Jurkat cells and on naive human T cells (human, UniProt P07766 23-207); test: cell-based or functional assay
[2] = target: T2, CD3ed (CD3 epsilon/delta fusion protein) (human); test: SPR, recombinant human CD3
T2 construct: Expressed in HEK293 and purified on His60 resin and by SEC; also called soluble human CD3ed antigen; hCD3ed
T2 chain: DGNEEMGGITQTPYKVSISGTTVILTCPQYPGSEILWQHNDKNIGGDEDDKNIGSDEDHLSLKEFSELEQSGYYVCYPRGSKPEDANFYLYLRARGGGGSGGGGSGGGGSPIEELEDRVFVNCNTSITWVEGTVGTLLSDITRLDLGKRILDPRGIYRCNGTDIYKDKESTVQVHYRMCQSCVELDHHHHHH

[3] = target: T1, human CD3 epsilon subunit (CD3e), as …; test: flow cytometry titration on naive human T cells (PE-A Geo Mean against Ab in nM); Kd printed beside the legend
[4] = target: T1, human CD3 epsilon subunit (CD3e), as …; test: FACS on Jurkat cells expressing CD3, monovalent IgG
Experimental: All the mutants were generated as monovalent IgG antibodies using standard transient HEK293 expression followed by purification using Protein A column. The resulting clones were tested for binding to Jurkat cells expressing CD3 using FACS and self-association potential using AC-SINS as described above in Example 7. As shown in Table 16, five molecules with improved epivax score and reduced T-cell epitopes and retained affinity to CD3 were chosen to move forward and test in diabody-Fc format. The 2B5v6 variants with improved epivax scores were compared to the parental 2B5v6.
Target sequence in this assay (P07766 23-207 limits assumed): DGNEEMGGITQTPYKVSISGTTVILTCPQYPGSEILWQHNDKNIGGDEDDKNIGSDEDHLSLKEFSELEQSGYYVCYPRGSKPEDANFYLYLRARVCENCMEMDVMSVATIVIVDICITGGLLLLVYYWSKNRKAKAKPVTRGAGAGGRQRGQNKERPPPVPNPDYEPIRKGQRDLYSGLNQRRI

Row | Binder | In vitro Cytotoxicity [1] [nM] | Kd [2] [nM] | EC50 [4] [nM] | further results
1 | GUCY2C-1679 bispecific antibody (bispecific antibody, Bispecific diabody-Fc; also called GUCY2c bispecific with CD3 variant 2B5-1040) chain 1: DIQLTQSPSSLSASVGDRVTITCRASESVDYYGSSLLQWYQQKPGKAPKLLIYAASKLASGVPSRFSGSGSGTDFTLTISSLQPEDFATYYCQQTRKAYTFGQGTKLEIKGGGSGGGGEVQLVESGGGLVQPGGSLRLSCAASGFTFSDYYMTWVRQAPGKGLEWVAFIRNQARGYTSDHNPSVKGRFTISRDNAKNSLYLQMNSLRAEDTAVYYCARDRPSYYVLDYWGQGTTVTVSSGCPPCPAPEAAGAPSVFLFPPKPKDTLMISRTPEVTCVVVDVSHEDPEVKFNWYVDGVEVHNAKTKPREEQYNSTYRVVSVLTVLHQDWLNGKEYKCKVSNKALPAPIEKTISKAKGQPREPQVCTLPPSREEMTKNQVSLWCLVKGFYPSDIAVEWESNGQPENNYKTTPPVLDSDGSFFLYSKLTVDKSRWQQGNVFSCSVMHEALHNHYTQKSLSLSPG chain 2: DIQMTQSPSSLSASVGDRVTITCTSSQSLFNVRSGKNYLAWYQQKPGKAPKLLIYWASDRESGVPSRFSGSGSGTDFTLTISSLQPEDFATYYCKQSYDLFTFGGGTKVEIKGGGGSGGGGEVQLVESGGGLVQPGGSLRLSCAASGFTFSSYWMHWVRQAPGKGLEWIGEIKPSNELTNVHEKFKDRFTISVDKAKNSAYLQMNSLRAEDTAVYYCTRTITTTEGYWFFDVWGQGTLVTVSSGCPPCPAPEAAGAPSVFLFPPKPKDTLMISRTPEVTCVVVDVSHEDPEVKFNWYVDGVEVHNAKTKPREEQYNSTYRVVSVLTVLHQDWLNGKEYKCKVSNKALPAPIEKTISKAKGQPREPQVYTLPPCREEMTKNQVSLSCAVKGFYPSDIAVEWESNGQPENNYKTTPPVLDSDGSFFLVSKLTVDKSRWQQGNVFSCSVMHEALHNHYTQKSLSLSPG | 0.194 | 72 | – | –
2 | GUCY2c-H2B4 bispecific antibody (bispecific antibody, human IgG1, Bispecific diabody-Fc (knob-in-hole, effector null human IgG1 Fc)) chain 1: DIQLTQSPSSLSASVGDRVTITCRASESVDYYGTSLMQWYQQKPGKPPKLLIYAASNVESGVPSRFSGSGSGTDFTLTISSLQPEDFATYYCQQTRKVYTFGQGTKLEIKGGGSGGGGEVQLVESGGGLVQPGGSLRLSCAASGFTFSDYYMTWVRQAPGKGLEWVAFIRNRARGYTSDHNPSVKGRFTISRDNAKNSLYLQMNSLRAEDTAVYYCARDRPSYYVLDYWGQGTTVTVSSGCPPCPAPEAAGAPSVFLFPPKPKDTLMISRTPEVTCVVVDVSHEDPEVKFNWYVDGVEVHNAKTKPREEQYNSTYRVVSVLTVLHQDWLNGKEYKCKVSNKALPAPIEKTISKAKGQPREPQVCTLPPSREEMTKNQVSLWCLVKGFYPSDIAVEWESNGQPENNYKTTPPVLDSDGSFFLYSKLTVDKSRWQQGNVFSCSVMHEALHNHYTQKSLSLSPG chain 2: DIVMTQSPDSLAVSLGERATINCKSSQSLFNVRSRKNYLAWYQQKPGQPPKLLISWASTRESGVPDRFSGSGSGTDFTLTISSLQAEDVAVYYCKQSYDLFTFGSGTKLEIKGGGSGGGGEVQLVESGGGLVQPGGSLRLSCAASGYTFTSYWMHWVRQAPGKGLEWIGEIKPSNGLTNYIEKFKNRFTISVDKAKNSAYLQMNSLRAEDTAVYYCTRTITTTEGYWFFDVWGQGTLVTVSSGCPPCPAPEAAGAPSVFLFPPKPKDTLMISRTPEVTCVVVDVSHEDPEVKFNWYVDGVEVHNAKTKPREEQYNSTYRVVSVLTVLHQDWLNGKEYKCKVSNKALPAPIEKTISKAKGQPREPQVYTLPPCREEMTKNQVSLSCAVKGFYPSDIAVEWESNGQPENNYKTTPPVLDSDGSFFLVSKLTVDKSRWQQGNVFSCSVMHEALHNHYTQKSLSLSPG | – | – | – | Kd [3]: 8.18 nM
3 | GUCY2C-1678 bispecific antibody (bispecific antibody, Bispecific diabody-Fc; also called GUCY2c bispecific with CD3 variant 2B5-1038) chain 1: DIQLTQSPSSLSASVGDRVTITCRASESVDYYGSSLLQWYQQKPGKAPKLLIYAASKLASGVPSRFSGSGSGTDFTLTISSLQPEDFATYYCQQTRKAYTFGQGTKLEIKGGGSGGGGEVQLVESGGGLVQPGGSLRLSCAASGFTFSDYYMTWVRQAPGKGLEWVAFIRNQARGYTSDHNPSVKGRFTISRDNAKNSLYLQMNSLRAEDTAVYYCARDRPSYYVLDYWGQGTTVTVSSGCPPCPAPEAAGAPSVFLFPPKPKDTLMISRTPEVTCVVVDVSHEDPEVKFNWYVDGVEVHNAKTKPREEQYNSTYRVVSVLTVLHQDWLNGKEYKCKVSNKALPAPIEKTISKAKGQPREPQVCTLPPSREEMTKNQVSLWCLVKGFYPSDIAVEWESNGQPENNYKTTPPVLDSDGSFFLYSKLTVDKSRWQQGNVFSCSVMHEALHNHYTQKSLSLSPG chain 2: DIQMTQSPSSLSASVGDRVTITCTSDQSLFNVRSGKNYLAWYQQKPGKAPKLLIYWASDRESGVPSRFSGSGSGTDFTLTISSLQPEDFATYYCKQSYDLFTFGGGTKVEIKGGGGSGGGGEVQLVESGGGLVQPGGSLRLSCAASGFTFSSYWMHWVRQAPGKGLEWIGEIKPSNELTNVHEKFKDRFTISVDKAKNSAYLQMNSLRAEDTAVYYCTRTITTTEGYWFFDVWGQGTLVTVSSGCPPCPAPEAAGAPSVFLFPPKPKDTLMISRTPEVTCVVVDVSHEDPEVKFNWYVDGVEVHNAKTKPREEQYNSTYRVVSVLTVLHQDWLNGKEYKCKVSNKALPAPIEKTISKAKGQPREPQVYTLPPCREEMTKNQVSLSCAVKGFYPSDIAVEWESNGQPENNYKTTPPVLDSDGSFFLVSKLTVDKSRWQQGNVFSCSVMHEALHNHYTQKSLSLSPG | 0.247 | 63.5 | – | –
4 | GUCY2C-1680 bispecific antibody (bispecific antibody, Bispecific diabody-Fc; also called GUCY2c bispecific with CD3 variant 2B5-1039) chain 1: DIQLTQSPSSLSASVGDRVTITCRASESVDYYGSSLLQWYQQKPGKAPKLLIYAASKLASGVPSRFSGSGSGTDFTLTISSLQPEDFATYYCQQTRKAYTFGQGTKLEIKGGGSGGGGEVQLVESGGGLVQPGGSLRLSCAASGFTFSDYYMTWVRQAPGKGLEWVAFIRNQARGYTSDHNPSVKGRFTISRDNAKNSLYLQMNSLRAEDTAVYYCARDRPSYYVLDYWGQGTTVTVSSGCPPCPAPEAAGAPSVFLFPPKPKDTLMISRTPEVTCVVVDVSHEDPEVKFNWYVDGVEVHNAKTKPREEQYNSTYRVVSVLTVLHQDWLNGKEYKCKVSNKALPAPIEKTISKAKGQPREPQVCTLPPSREEMTKNQVSLWCLVKGFYPSDIAVEWESNGQPENNYKTTPPVLDSDGSFFLYSKLTVDKSRWQQGNVFSCSVMHEALHNHYTQKSLSLSPG chain 2: DIQMTQSPSSLSASVGDRVTITCTSSESLFNVRSGKNYLAWYQQKPGKAPKLLIYWASDRESGVPSRFSGSGSGTDFTLTISSLQPEDFATYYCKQSYDLFTFGGGTKVEIKGGGGSGGGGEVQLVESGGGLVQPGGSLRLSCAASGFTFSSYWMHWVRQAPGKGLEWIGEIKPSNELTNVHEKFKDRFTISVDKAKNSAYLQMNSLRAEDTAVYYCTRTITTTEGYWFFDVWGQGTLVTVSSGCPPCPAPEAAGAPSVFLFPPKPKDTLMISRTPEVTCVVVDVSHEDPEVKFNWYVDGVEVHNAKTKPREEQYNSTYRVVSVLTVLHQDWLNGKEYKCKVSNKALPAPIEKTISKAKGQPREPQVYTLPPCREEMTKNQVSLSCAVKGFYPSDIAVEWESNGQPENNYKTTPPVLDSDGSFFLVSKLTVDKSRWQQGNVFSCSVMHEALHNHYTQKSLSLSPG | 0.385 | 78.6 | – | –
5 | 2B5v6-0517 (antibody, V domains shown, Tested as a monovalent IgG; also called 2B5-0517) VH: EVQLVESGGGLVQPGGSLRLSCAASGFTFSDYYMTWVRQAPGKGLEWVAFIRNQARGYTSDHQPSVKGRFTISRDNAKNSLYLQMNSLRAEDTAVYYCARDRPSYYVLDYWGQGTTVTVSS VL: DIQMTQSPSSLSASVGDRVTITCTSSQSLFNVRSGKNYLAWYQQKPGKAPKLLIYWASTRESGVPSRFSGSGSGTDFTLTISSLQPEDFATYYCKQSYDLFTFGGGTKVEIK | – | – | 9.9 | –
6 | 2B5v6-0538 (antibody, V domains shown, Tested as a monovalent IgG; also called 2B5-0538) VH: EVQLVESGGGLVQPGGSLRLSCAASGFTFSDYYMTWVRQAPGKGLEWVAFIRNQARGYTSDHNPSVKGRFTISRDNAKNSLYLQMNSLRAEDTAVYYCARDRPSYYVLDYWGQGTTVTVSS VL: DIQMTQSPSSLSASVGDRVTITCTSSQSLFNVRSQKNYLAWYQQKPGKAPKLLIYWASDRESGVPSRFSGSGSGTDFTLTISSLQPEDFATYYCKQSYDLFTFGGGTKVEIK | – | – | 9.2 | –
7 | 2B5v6-0522 (antibody, V domains shown, Tested as a monovalent IgG; also called 2B5-0522) VH: EVQLVESGGGLVQPGGSLRLSCAASGFTFSDYYMTWVRQAPGKGLEWVAFIRNQARGYTSDHQPSVKGRFTISRDNAKNSLYLQMNSLRAEDTAVYYCARDRPSYYVLDYWGQGTTVTVSS VL: DIQMTQSPSSLSASVGDRVTITCTSSQSLFNVRSQKNYLAWYQQKPGKAPKLLIYWASDRESGVPSRFSGSGSGTDFTLTISSLQPEDFATYYCKQSYDLFTFGGGTKVEIK | – | – | 8.6 | –
8 | 2B5v6-0533 (antibody, V domains shown, Tested as a monovalent IgG; also called 2B5-0533) VH: EVQLVESGGGLVQPGGSLRLSCAASGFTFSDYYMTWVRQAPGKGLEWVAFIRNQARGYTSDHNPSVKGRFTISRDNAKNSLYLQMNSLRAEDTAVYYCARDRPSYYVLDYWGQGTTVTVSS VL: DIQMTQSPSSLSASVGDRVTITCTSSQSLFNVRSGKNYLAWYQQKPGKAPKLLIYWASTRESGVPSRFSGSGSGTDFTLTISSLQPEDFATYYCKQSYDLFTFGGGTKVEIK | – | – | 6.1 | –
